Columns and labels:
MS2 coat protein [1] = assay: apparent KD of MS2 coat protein, switch OFF state (with FMN for OFF switches, without FMN for ON switches); designed switch direction (-1 OFF switch, 1 ON switch): 1; higher = weaker reporter binding; conditions: FMN input: 0 or 200 uM; Eterna round: R93 (includes R88 designs)
Method in brief: (§1)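 Apparent KD was obtained for each design as the median of normalised binding-curve fits over its clusters. RNA switches transcribed on-chip from Illumina sequencing clusters were titrated with SNAP-549-labelled MS2 coat protein (twofold steps, 0.7 or 1.5 nM to 3 µM) in 100 mM Tris-HCl pH 7.5, 80 mM KCl, 4 mM MgCl2, without or with constant ligand.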

MS2 coat protein [2] = assay: apparent KD of MS2 coat protein, switch ON state; designed switch direction (-1 OFF switch, 1 ON switch): 1; higher = weaker reporter binding; conditions: FMN input: 0 or 200 uM; Eterna round: R93 (includes R88 designs)
Method in brief: as §1

Sequence	apparent KD of MS2 coat protein (MS2 coat protein [1]) [nM]	apparent KD of MS2 coat protein (MS2 coat protein [2]) [nM]
AAUAUACAUGAGGAUCACCCAUGUAUUAAUAGCUGAGGAUAUACGGGUGAAAAUAGCAUAGUAGAAGGCGGGUGUA [SameState1 Malc#10]	144	107
GAAAAACAUGAGGAUCACCCAUGUGAGAUAAACACAGGAUAUGCGAAAAUAAACAAAUAAGCAGAAGGGUGAAAAG [Mat - Same State 1 - Tesla mod - 80]	92.4	27.1
AAGGCACAUGAGGAUCACCCAUGUUAGCCGCGACGAGGAUAUGGGAACGCGUCAGCGGAAUUAGAAGGUGUGGUGA [Qusoquan]	37.8	35.6
AACAAUCUAUCUGAGGAUAUCAUGUCAAAGACAUGAGGAUCACCCAUGUAGCAGGAAACUGCAUAUGAGAAGGCAGAUAGAUUGA [SS2: 1118]	166	16.3
GAUAAACAUGAGGAUCACCCAUGUAGAUAUAUGGGAGGAUAUACAAAGACGAUAGUCAUAGUAGAAGGCCUAAUAG [77%, Mat - Mod of Eli - With 5 more U's]	91.2	30
AAGAAACAUGAGGAUCACCCAUGUAAAUUCAAGAGAGGAUAUCGUACAUGGAAGAUUCAACGAGAAGGCUCUAGAA [Pariah 3 (MS2 Riboswitches - Same State 1)]	83	19.3
AAAGAAUGAAGGCAGGAUAUGUGAAAAAAAACAUGAGGAUCACCCAUGUAAUAAAUGGGUACAAAACAGAAGGGCCAAGAAACAA [SS 2 Tesla 3]	700	380
AUAAAACAUGAGGAUCACCCAUGUAGAAAUAAGGGAGGAUAUACAAAGACGAAAGUCAAAGUAGAAGGCUCAAAAG [76%, Meechl 5]	24.3	16.8
AUAUAUAUAAGGUAGGAUAUCCAAAAAUAAACAUGAGGAUCACCCAUGUCCAUAAAGAAUAAAUGGGAGAAGGACCAUAUAUAUA [viburnum 9]	48.6	28.5
GAAAAACAUGAGGAUCACCCAUGUAGAAAUAUGGGAGGAUAUACGAAGACGAAAGUCAAAGUAGAAGGCCUAAAAG [Mat - Same State 1 - Eli mod - D22]	57.3	28
GAGGACAUAGUACAGGAUAUAUGAAUAGUUACAUGAGGAUCACCCAUGUGCAUUUAUAUGCGAACAUAGAAGGGUGGUAGUUAUC [SameState2 Malc#30]	68.9	136
GGAAAACAUGAGGAUCACCCAUGUGAAAACGUGGGAGGAUAUCCAUGGAAACCAUACUGUGGAGAAGGCCCAUGUC [EteRNA is fun!]	65.2	19.6
CUGGACGUAGGAUAGGAUAUAUGAAUAAUUACAUGAGGAUCACCCAUGUCCAUUUAUAUGGGAACAUAGAAGGGUUGUGGUUAAG [Mat - Same state - Malcolm Mod - D145]	241	160
AAAAGACAUGAGGAUCACCCAUGUAAAAACGUAGGAGGAUAUGUCGUGAAAAAAGACUUGGCAGAAGGCCUGUGUC [SS1 - 39]	50.5	30
UCCUUACAUGAGGAUCACCCAUGUCGCAGGAAUCAAGGAUAUGGGACCGCAAUGCGGAAACCAGAAGGUGACAAAA [Zaesor]	322	158
AAAAGACAUGAGGAUCACCCAUGUCAAAACGUAGGAGGAUAUGUAUGGAAACCAUACUGUACAGAAGGCCUUUGUC [SS1 - 77]	14.2	14
AAAAAAAAAGUCGAGGAUAUCCACAUGGCUACAUGAGGAUCACCCAUGUGAAGAAAAGCACAUGAGGAGAAGGCGACAAAAAAAAA [Tightrope]	24.5	11.6
AGGAAACAUGAGGAUCACCCAUGUAAAAAUAACGCAGGAUAUGGAAACACGAAAGUGAAACCAGAAGGGUGAAAAG [77%, Mat - Mod of Eli, 14]	29.8	18.9
AAAACACAUGAGGAUCACCCAUGUAAAAACAUGAGAGGAUAUGCAUGGAAAAAAAACUAUGCAGAAGGCUCAUGUG [SS1 - 4]	32.2	21.2
ACUAUACAUGAGGAUCACCCAUGUUAGGUGGGACUAGGAUAUCAAAAGCCAGAGUAAGAAUGAGAAGGAGUAGAAA [JR_SS001_Sub301]	34.8	32.8
AGGAGACAUGAGGAUCACCCAUGUAGAAGGAUGGGAGGAUAUACAAAGACGAGAGUCAGAGUAGAAGGCCUAGGAA [salish99-ss1-182(!)]	55.4	19.7
GAAAAACAUGAGGAUCACCCAUGUAGAAAUAUGGGAGGAUAUACAAAGACGAAAGUCAAGGUAGAAGGCCUAAAAG [Mat - Same State 1 - Eli mod - 25]	78.8	37.5

Sequence	apparent KD of MS2 coat protein (MS2 coat protein [1]) [nM]	apparent KD of MS2 coat protein (MS2 coat protein [2]) [nM]
AGAAAACAUGAGGAUCACCCAUGUGACAAUAUGGGAGGAUAUACCAAGACGAAAGUCGAAGUAGAAGGCCUAAAGA [Garnet 51]	69.8	22.9
AACAAUCUAUCUGAGGAUAUGAUGUCAAAGACAUGAGGAUCACCCAUGUCCAGGAAAACUGGAUAUCAGAAGGCAGAUAGAUUGA [SS2: 1104]	12.9	10.2
AUACUGGAGGACAAGGAUAUGUGCUCCACGACAUGAGGAUCACCCAUGUGCGACGUGGUAGUGAAACAGAAGGUGUCCUAUUGUA [Edonisve]	17.7	13.1
AAUCCAAAUAGUCAGGAUAUCAAAAAUAAGACAUGAGGAUCACCCAUGUAAUAAGUAAAAGUAAAUGAGAAGGGACAGGGUGAAA [JR_SS002_Sub401]	92.8	398
AACCAACAUGAGGAUCACCCAUGUCUACAGGAUUAAGGAUAUGGGCAGGGCUUCCCUGCACUAGAAGGUGAUCCAA [Enonenen]	52.3	409
AUGAAUAGAAUCGAGGAUAUCCAGUCAUGAACAUGAGGAUCACCCAUGUAAGAGAGAGUAUAAUGGGAGAAGGCGAGUAAUAGAU [JR_SS002_Sub1702]	84.5	27
GAGAAGAAGAGAGAGGAUAUCCAAAGGAAAACAUGAGGAUCACCCAUGUAAAAGGUAGGAAAUUGGGAGAAGGCUCAAAAGAGGG [salish99-ss2-028(!)]	44	19.9
AAUAAGACUAGCAAGGAUAUCUAAAACGAAACAUGAGGAUCACCCAUGUAACGAGUACACGUAUCAGAGAAGGUGCAGGGUGAAA [JR_SS002_Sub305]	16.2	36.1
UAUAAACAUGAGGAUCACCCAUGUAGAAAUAUGGGAGGAUAUACGAAGACGAAAGUCAAAGUAGAAGGCCUAAUAU [Mat - Same State 1 - Eli mod - D113]	49.2	16.9
AAGAACGUGGUGUAGGAUAUACUAAUAGUCACAUGAGGAUCACCCAUGUUCAUAUAUAUGAACGAGUAGAAGGACGACGAAAAAA [Mat - Same state - Malcolm Mod - D107]	147	137
GAUAGACAUGAGGAUCACCCAUGUAGAAUUAUGGGAGGAUAUACAAAGACGAGAGUCAGAGUAGAAGGCCUAGGAU [salish99-ss1-157]	54.4	23.6
UAACAGCACAGGUAGGAUAUGUAGGGUGGUACAUGAGGAUCACCCAUGUAUCCACCCUUCGAAAGGCAGAAGGGCCUGUCGCUAC [Velabibe]	20.4	14.6
AAAACACAUGAGGAUCACCCAUGUAGAAAUACGGGAGGAUAUGCAAAAACGAAAGACAAAGUAGAAGGCCUAAAAG [saturn 9]	67	26.2
AACUAACAUGAGGAUCACCCAUGUAUUCAAACAUGAGGAUAUAUAACACAUCAUCAACAGAUAGAAGGCAUAAAUA [JR_SS001_Sub1204]	82.3	93
AAAGACAUAGUUCAGGAUAUGGUAAUAGUCACAUGAGGAUCACCCAUGUGCAUUUAUAUGCGCGAUCAGAAGGGAGGUAGAUAAA [SameState2 Malc#17]	21.5	24.9
AAAACACAUGAGGAUCACCCAUGUCAAAAAAACACAGGAUAUCCAAAAAAAAAAAAAAAAGGAGAAGGGUGAAAAA [high kcal]	42	65
CGAAGACAUGAGGAUCACCCAUGUCGUCGUAACAGAGGAUAUGGGAGCGCCAAGGGCGCAUCAGAAGGCUGAAAAC [Beusle]	25.1	17.8
AAGAAACAUGAGGAUCACCCAUGUAAGAUAAACACAGGAUAUGCGAAUAAAAUAAAUAAAGCAGAAGGGUGAAGAA [Mat - Same State 1 - Tesla mod - D150]	34.3	17.1
AUAAAGAAAACACAGGAUAUCCAAAAGAAAACAUGAGGAUCACCCAUGUAAAGAAAAUAAAAAUGGGAGAAGGGUGAAAGAAAUA [Mat - Same State 2 - JL mod - D40]	109	34.8
AAUACACAUAGUCAGGAUAUCAAAAAUAAGACAUGAGGAUCACCCAUGUAAUAAGUAAAAGUAAAUGAGAAGGGACAGGGUGACC [JR_SS002_Sub403]	199	1560
GAAAAACAUGAGGAUCACCCAUGUAGAAAUAUGGGAGGAUAUACAAAGACGAAAGUCGAAGUAGAAGGCCUAAAAG [Mat - Same State 1 - Eli mod - D23]	66.8	25.5

Reference: the supplement of paper PMC9170038
